The results in this text go back to EP4714976A1.

Experiment [1] concerns the target extracellular domain of FGFR2c protein (Example 1) (UniProt P21802). Put plainly: phage ELISA. In general terms: ELISA stands for enzyme-linked immunosorbent assay.
The target of experiment [2] is extracellular domain of the FGFR2b protein (NP_075259.4) (UniProt P21802). The experiment is described as follows: phage ELISA.
Sequence of extracellular domain of the FGFR2b protein (NP_075259.4) (P21802 other isoform, or with tags, fused parts or gaps): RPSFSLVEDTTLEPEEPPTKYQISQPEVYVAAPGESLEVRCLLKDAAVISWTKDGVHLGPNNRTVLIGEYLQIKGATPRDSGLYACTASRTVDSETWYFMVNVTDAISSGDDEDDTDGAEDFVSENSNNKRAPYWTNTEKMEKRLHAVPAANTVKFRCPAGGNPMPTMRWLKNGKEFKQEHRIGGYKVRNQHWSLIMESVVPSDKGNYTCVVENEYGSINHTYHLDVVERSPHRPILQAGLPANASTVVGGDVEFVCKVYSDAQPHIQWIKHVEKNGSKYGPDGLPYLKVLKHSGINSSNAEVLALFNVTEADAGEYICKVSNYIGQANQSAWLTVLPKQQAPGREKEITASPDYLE

Sequence of extracellular domain of FGFR2c protein (Example 1) (P21802 22-377): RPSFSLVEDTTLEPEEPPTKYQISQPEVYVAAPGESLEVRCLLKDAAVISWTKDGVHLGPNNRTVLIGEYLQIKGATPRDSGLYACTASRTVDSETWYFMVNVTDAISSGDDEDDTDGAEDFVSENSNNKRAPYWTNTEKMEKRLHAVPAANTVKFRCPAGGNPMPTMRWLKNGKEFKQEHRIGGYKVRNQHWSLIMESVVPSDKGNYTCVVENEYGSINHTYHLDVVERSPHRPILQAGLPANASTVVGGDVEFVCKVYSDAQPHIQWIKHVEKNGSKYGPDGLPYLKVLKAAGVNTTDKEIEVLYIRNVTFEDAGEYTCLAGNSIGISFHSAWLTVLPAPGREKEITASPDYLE

Turning to “Negative control (Tables 1 and 2) (antibody)”, the OD (450 nm) value worked out at 0.045 in experiment [1] and 0.024 in experiment [2].
